Experiment [1] deals with T1, Cell adhesion molecule-1 (CADM1), human, on the cell surface (human) (UniProt Q9BY67).
T1 sequence (looked up): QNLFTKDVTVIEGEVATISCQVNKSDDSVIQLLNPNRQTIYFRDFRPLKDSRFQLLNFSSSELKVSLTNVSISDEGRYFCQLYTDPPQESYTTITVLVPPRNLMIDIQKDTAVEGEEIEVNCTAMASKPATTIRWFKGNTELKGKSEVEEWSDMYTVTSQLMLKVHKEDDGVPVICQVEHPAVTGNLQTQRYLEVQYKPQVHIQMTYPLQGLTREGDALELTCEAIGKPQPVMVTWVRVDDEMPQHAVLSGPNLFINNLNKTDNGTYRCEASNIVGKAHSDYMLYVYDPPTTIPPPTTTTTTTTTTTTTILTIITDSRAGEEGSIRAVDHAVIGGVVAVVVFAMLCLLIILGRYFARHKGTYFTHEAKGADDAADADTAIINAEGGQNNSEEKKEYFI
The experiment is described as follows: cell-based or functional assay.

The target in experiment [2] is T2, CADM1 extracellular domain expressed by the CHO-Flpln CADM1 cell line (human) (UniProt Q9BY67).
T2 sequence: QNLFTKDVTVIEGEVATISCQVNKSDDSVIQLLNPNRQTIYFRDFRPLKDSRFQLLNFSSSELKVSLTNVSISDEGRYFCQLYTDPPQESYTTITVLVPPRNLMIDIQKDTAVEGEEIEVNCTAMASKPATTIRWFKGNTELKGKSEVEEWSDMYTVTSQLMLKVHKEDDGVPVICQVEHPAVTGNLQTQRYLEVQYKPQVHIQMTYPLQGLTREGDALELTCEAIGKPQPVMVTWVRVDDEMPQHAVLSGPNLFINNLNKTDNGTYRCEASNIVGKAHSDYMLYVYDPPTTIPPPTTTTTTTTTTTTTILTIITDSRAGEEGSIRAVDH
The experiment is described as follows: flow cytometry, CHO-Flpln CADM1 cells. For orientation: In flow cytometry, cells or beads pass a laser one at a time.

Experiment [3] addresses T1, Cell adhesion molecule-1 (CADM1), human, on the cell surface (human). Nature of the experiment: flow cytometry, DU145 cells.
For experiment [4] the target is unchanged. The experiment is described as follows: flow cytometry, LnCaP cells (second table of Example 15).
Experiment [5] shares this target. Nature of the experiment: flow cytometry, SKMEL28 melanoma cells, antibody 10ug/ml.
The target is the same in experiment [6]. Nature of the experiment: flow cytometry, Caco-2 colon cancer cells, antibody 10ug/ml.
The target is the same in experiment [7]. Nature of the experiment: flow cytometry, LnCaP prostate cancer cells, antibody 10ug/ml.
In experiment [8] the target is T2, CADM1 extracellular domain expressed by the CHO-Flpln CADM1 cell line (human). The experiment is described as follows: flow cytometry, CHO-Flpln CADM1 cells (second table of Example 15).
In experiment [9] the target is T1, Cell adhesion molecule-1 (CADM1), human, on the cell surface (human). The experiment is described as follows: flow cytometry, Lovo colon cancer cells, antibody 10ug/ml.
Experiment [10] has the same target. Nature of the experiment: flow cytometry, MDA-MB-435S melanoma cells, antibody 10ug/ml.
The target is the same in experiment [11]. Nature of the experiment: flow cytometry, LnCaP cells.
The target is the same in experiment [12]. Nature of the experiment: flow cytometry, SW480 colon cancer cells, antibody 10ug/ml.
Experiment [13] has the same target. Nature of the experiment: flow cytometry, DU145 prostate cancer cells, antibody 10ug/ml.
Experiment [14] addresses T3, CADM3, human, on transfected CHO cells (human, UniProt Q8N126 25-398).
T3 construct: whole, on cells; also called CADSV13 (OCR)
T3 sequence (looked up): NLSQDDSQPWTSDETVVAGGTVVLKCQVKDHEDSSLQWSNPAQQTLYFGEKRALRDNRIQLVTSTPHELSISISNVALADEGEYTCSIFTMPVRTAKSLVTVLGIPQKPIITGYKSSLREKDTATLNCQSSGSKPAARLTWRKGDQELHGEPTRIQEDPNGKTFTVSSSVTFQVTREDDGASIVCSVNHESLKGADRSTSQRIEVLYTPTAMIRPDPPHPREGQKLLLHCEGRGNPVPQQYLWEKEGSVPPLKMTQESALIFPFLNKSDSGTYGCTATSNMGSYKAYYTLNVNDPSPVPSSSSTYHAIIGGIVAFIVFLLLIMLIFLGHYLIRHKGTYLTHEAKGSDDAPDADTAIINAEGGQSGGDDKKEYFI
Nature of the experiment: flow cytometry, CHO cells transiently transfected with CADM3.

Experiment [15] has as its target T4, CADM4, human, on transfected CHO cells (human, UniProt Q8NFZ8 21-388).
T4 construct: whole, on cells; also called CAD 4
T4 sequence (looked up): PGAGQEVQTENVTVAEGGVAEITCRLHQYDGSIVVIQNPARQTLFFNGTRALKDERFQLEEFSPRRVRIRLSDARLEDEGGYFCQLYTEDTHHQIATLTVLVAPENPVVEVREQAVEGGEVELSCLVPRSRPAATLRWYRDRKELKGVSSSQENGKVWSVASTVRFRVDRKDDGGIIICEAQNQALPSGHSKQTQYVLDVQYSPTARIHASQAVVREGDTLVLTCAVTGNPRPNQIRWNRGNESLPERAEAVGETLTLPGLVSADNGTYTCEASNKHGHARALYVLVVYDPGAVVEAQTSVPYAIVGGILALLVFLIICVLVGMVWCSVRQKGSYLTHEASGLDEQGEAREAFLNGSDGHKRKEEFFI
Nature of the experiment: flow cytometry, CHO cells transiently transfected with CADM4.

Experiment [16] addresses T5, Cell adhesion molecule-1 (CADM1), human, on the cell surface (human, UniProt Q9BY67 45-442).
T5 construct: whole, on cells; also called TSLC1; IGSF4
T5 sequence (looked up): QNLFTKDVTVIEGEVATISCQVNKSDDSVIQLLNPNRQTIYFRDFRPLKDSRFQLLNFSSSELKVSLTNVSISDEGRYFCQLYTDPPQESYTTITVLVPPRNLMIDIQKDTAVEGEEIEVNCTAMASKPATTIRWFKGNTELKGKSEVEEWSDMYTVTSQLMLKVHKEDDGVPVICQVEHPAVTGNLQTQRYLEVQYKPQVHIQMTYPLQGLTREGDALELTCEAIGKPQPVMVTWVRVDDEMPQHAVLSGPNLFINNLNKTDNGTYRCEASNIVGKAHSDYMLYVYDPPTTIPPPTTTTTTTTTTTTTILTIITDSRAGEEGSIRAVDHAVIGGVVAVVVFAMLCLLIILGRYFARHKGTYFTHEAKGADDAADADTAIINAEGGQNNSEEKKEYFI
Nature of the experiment: flow cytometry titration, SKOV3 ovary cancer cells.

For experiment [17], the target named is T6, CADM2, human, on transfected CHO cells (human, UniProt Q8N3J6 25-435).
T6 construct: whole, on cells
T6 sequence (looked up): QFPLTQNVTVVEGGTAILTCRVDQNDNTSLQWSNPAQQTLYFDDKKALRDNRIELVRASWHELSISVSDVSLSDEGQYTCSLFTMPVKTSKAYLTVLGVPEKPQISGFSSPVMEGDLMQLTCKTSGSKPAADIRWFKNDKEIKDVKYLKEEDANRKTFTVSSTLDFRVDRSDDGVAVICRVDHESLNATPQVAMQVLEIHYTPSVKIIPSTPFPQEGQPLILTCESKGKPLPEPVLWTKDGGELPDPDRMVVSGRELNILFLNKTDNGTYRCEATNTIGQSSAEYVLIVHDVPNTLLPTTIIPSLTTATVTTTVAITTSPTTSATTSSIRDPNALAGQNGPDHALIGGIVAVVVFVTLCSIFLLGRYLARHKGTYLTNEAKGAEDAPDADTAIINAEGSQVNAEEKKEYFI
Nature of the experiment: flow cytometry, CHO cells transiently transfected with CADM2.

In experiment [18] the target is T5, Cell adhesion molecule-1 (CADM1), …. The experiment is described as follows: flow cytometry titration, A375 melanoma cells, mouse IgG2a isotype.
Experiment [19] has the same target. Nature of the experiment: flow cytometry titration, A375 melanoma cells, human IgG1 isotype.

B1: Antibody-2 (antibody, V domains shown)
VH: EVQLLESGGGLVQPGGSLRLSCAASGFTFSKYEMVWVRQAPGKGLEWVSYIVPSGGATLYADSVKGRFTISRDNSKNTLYLQMNSLRAEDTAVYYCARVKAGVFDYWGQGTL
VL: QYELTQPPSVSVSPGQTARITCSGDRLGETYVSWYQQKPGQSPVLVIFEDNKRPSGIPERFSGSNSGNTATLTVSGTRAMDEADYYCQAWVGSTPFVFGTGTKVTVL
In experiment [1], B1 came in with a % cell viability at 100 nM, Hum-ZAP assay, A375 melanoma cells of 26.2%. Further, the % cell viability at 100 nM, Hum-ZAP assay, Caco-2 colon cancer cells in [1] was 55.9%. This molecule also displayed a % cell viability at 100 nM, Hum-ZAP assay, Lovo colon cancer cells in experiment [1] of 34.3%. The molecule also showed a % cell viability at 100 nM, Hum-ZAP assay, MDA-MB-435S melanoma cells in experiment [1] of 27.3%. In [1], this molecule showed a % cell viability at 100 nM, Hum-ZAP assay, SKMEL28 melanoma cells of 36.7%. In addition, the % cell viability at 100 nM, Hum-ZAP assay, SW480 colon cancer cells in [1] came to 20.6%. Besides, the % of viability, Hum-ZAP internalization assay, positive CADM1 cell line, antibody 10-6 M in experiment [1] amounted to 85.1%. The % of viability, Hum-ZAP internalization assay, positive CADM1 cell line, antibody 10-7 M in experiment [1] came to 29.3%. In addition, in experiment [1], the % of viability, Hum-ZAP internalization assay, positive CADM1 cell line, antibody 10-8 M was determined as 14%. Besides, the percent of cells bound in [2] worked out at 99.9%; in experiment [3], 99.5%; in [4], 98.6%; in experiment [8], 98.3%; in [11] it was 99.5%. The % of fluorescence cells in experiment [5] amounted to 100%; in experiment [6], 99.6%; in experiment [7], 98.6%; in experiment [9], 99.2%; in [10] it was 100%; in [12], 100%. Also, the % of fluorescence cells in [13] came to 99.5%.

B2: AB2 NF (antibody, V domains shown)
VH: EVQLLESGGGLVQPGGSLRLSCAASGFTFSKYEMVWVRQAPGKGLEWVSYIVPSGGATLYADSVKGRFTISRDNSKNTLYLQMNSLRAEDTAVYYCARVKAGVFDYWGQGTL
VL: QYELTQPPSVSVSPGQTARITCSGDRLGETYVSWYQQKPGQSPVLVIFEDNKRPSGIPERFSGSNSGNTATLTVSGTRAMDEADYYCQAWVGSTPFVFGTGTKVTVL
On to B2, for which the percent of cells bound in [4] is 96.8%; in experiment [8] it was 98.5%.

B3: Antibody-1 (antibody, V domains shown)
VH: EVQLLESGGGLVQPGGSLRLSCAASGFTFSFYPMQWVRQAPGKGLEWVSSIGSSGGYTKYADSVKGRFTISRDNSKNTLYLQMNSLRAEDTAVYYCTRDRWYFDLWGRGTL
VL: QSELTQDPAVSVALGHTVKITCQGDTFRTYYASWYQQKPGQAPLLVVYGENKRPSGIPDRFSGSTSGNTASLTITGAQAEDEADYYCHSRDNSGHLHVFGGGTKVTVL
Regarding B3, in [1], the % cell viability at 100 nM, Hum-ZAP assay, DU145 prostate cancer cells worked out at 60.6%. Moreover, the percent of cells bound worked out at 99.8% in experiment [2], 99% in [3] and 99.6% in experiment [11]. In experiment [13], this molecule returned a % of fluorescence cells of 99%.

B4: Antibody-3 (antibody, V domains shown)
VH: EVQLLESGGGLVQPGGSLRLSCAASGFTFSRYPMYWVRQAPGKGLEWVSSISSSGGLTHYADSVKGRFTISRDNSKNTLYLQMNSLRAEDTAVYYCARGDWYFDLWGRGTL
VL: QYELTQDPAVSVALGQTVRITCQGDSLRTYYASWYQQRPGQAPVLVIYGDNDRPSGIPDRFSGSTSRNTASLTITGAQAEDEAHYYCNSRDSSGNHIFATGTKVTVL
notes: also called AB3; AB 3
On to B4, for which the binding result in experiment [14], in experiment [15] and in experiment [17] was “no binding (tested: 10ug/ml (protocol of Example 19))” in each case. This molecule also yielded a percent of cells bound in experiment [2] of 99.7%. This molecule came in with an EC50 in [16] of 1 nM.

B5: anti-CADM1 AB-10, mouse IgG2a isotype (antibody, V domains shown)
VH: EVQLLESGGGLVQPGGSLRLSCAASGFTFSMYTMSWVRQAPGKGLEWVSSIWSSGGKTSYADSVKGRFTISRDNSKNTLYLQMNSLRAEDTAVYYCAKESWYFDLWGRGTL
VL: QYELTQDPAVSVALGQTVRITCQGHSLRSYYATWYQQKPGQAPVLVMYGENNRPSGIPDRFSGSSSGNTASLTITGAQAEDEADYYCNSRDNSGNHLVFGGGTNLTVL
notes: also called AB-10 mouse lgG2a
In turn, B5 yielded a half-maximal effective concentration (EC50) in [18] of 0.76 nM.

B6: Antibody-10 (antibody, V domains shown)
VH: EVQLLESGGGLVQPGGSLRLSCAASGFTFSMYTMSWVRQAPGKGLEWVSSIWSSGGKTSYADSVKGRFTISRDNSKNTLYLQMNSLRAEDTAVYYCAKESWYFDLWGRGTL
VL: QYELTQDPAVSVALGQTVRITCQGHSLRSYYATWYQQKPGQAPVLVMYGENNRPSGIPDRFSGSSSGNTASLTITGAQAEDEADYYCNSRDNSGNHLVFGGGTNLTVL
notes: also called AB10; AB 1 0
B6 yielded an EC50 in experiment [19] of 1.26 nM. Besides, the binding result in experiment [14], in experiment [15] and in experiment [17] was “no binding (tested: 10ug/ml (protocol of Example 19))” throughout. Also, the percent of cells bound in experiment [2] was 99.8%; in experiment [8], 98.7%.

As usually defined, the EC50 is the concentration giving half of the maximal effect. Read a low EC50 as greater potency.

These data come from WO2012119989A2 (dated 2012).
